Target: COVID-19 Spike-RBD-his fusion protein (novel coronavirus (COVID-19)), P0DTC2
Conditions: remark: other sources report otherwise

B1: CD147-his fusion protein, P35613 22-205 (receptor)
chain: AAGTVFTTVEDLGSKILLTCSLNDSATEVTGHRWLKGGVVLKEDALPGQKTEFKVDSDDQWGEYSCVFLPEPMGTANIQLHGPPRVKAVKSSEHINEGETAMLVCKSESVPPVTDWAWYKITDSEDKALMNGSESRFFVSSSQGRSELHIENLNMEADPGQYRCNGTSSKGSDQAIITLRVRSH
EC50: 68.8 mg/L
